One assay deals with T1, MBP–Morg1 (human, UniProt Q9BRX9 1-315).
T1 sequence (looked up): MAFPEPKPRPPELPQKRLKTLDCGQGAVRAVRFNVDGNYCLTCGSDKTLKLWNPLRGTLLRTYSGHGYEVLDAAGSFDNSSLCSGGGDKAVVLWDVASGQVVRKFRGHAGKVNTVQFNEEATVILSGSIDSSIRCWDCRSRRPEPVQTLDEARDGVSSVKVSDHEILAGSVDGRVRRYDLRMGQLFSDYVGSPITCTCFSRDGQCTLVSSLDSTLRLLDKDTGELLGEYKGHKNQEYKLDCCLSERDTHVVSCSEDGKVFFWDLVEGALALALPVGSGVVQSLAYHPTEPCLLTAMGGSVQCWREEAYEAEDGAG
The assay can be described thus: pull-down.

Assay [1] addresses recombinant Cdc42 (Q61L), GST-free (human, UniProt P60953 1-188, Q61L | C188S). Kind of assay: pull-down.

Chain of recombinant Cdc42 (Q61L), GST-free (P60953 1-188 Q61L/C188S): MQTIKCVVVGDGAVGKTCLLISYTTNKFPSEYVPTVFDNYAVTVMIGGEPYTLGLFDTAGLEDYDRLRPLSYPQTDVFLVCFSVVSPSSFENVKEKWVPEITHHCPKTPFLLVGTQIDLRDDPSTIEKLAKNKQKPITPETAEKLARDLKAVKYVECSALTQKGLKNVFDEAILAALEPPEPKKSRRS

B1: GST–Par6β (126–254) (domain or fragment, human, UniProt Q9BYG5 126-254, looked up)
chain: RKKPHIVISMPQDFRPVSSIIDVDILPETHRRVRLYKYGTEKPLGFYIRDGSSVRVTPHGLEKVPGIFISRLVPGGLAQSTGLLAVNDEVLEVNGIEVSGKSLDQVTDMMIANSRNLIITVRPANQRNN
Regarding B1, the binding result (in the assay with MBP–Morg1; in assay [1]) was “binds” throughout.

The values above are taken from paper PMC3587828 (The Journal of Cell Biology, 2013).
